Results published in patent US20250163127A1 (published 2025).

T1: human CD86 (human)
T1 chain: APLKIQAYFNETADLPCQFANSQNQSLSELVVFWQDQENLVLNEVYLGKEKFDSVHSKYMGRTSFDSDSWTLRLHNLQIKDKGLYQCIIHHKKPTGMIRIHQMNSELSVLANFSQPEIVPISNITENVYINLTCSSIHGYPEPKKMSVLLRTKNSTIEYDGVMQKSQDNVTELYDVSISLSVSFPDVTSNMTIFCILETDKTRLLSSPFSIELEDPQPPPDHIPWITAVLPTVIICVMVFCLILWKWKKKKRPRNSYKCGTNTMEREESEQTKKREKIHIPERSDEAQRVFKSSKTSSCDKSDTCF


Legend:
human CD86 = biological target: T1, human CD86; experiment: cell-based or functional assay
PD-1 = PD-1 (human, UniProt Q15116); experiment: cell-based or functional assay
CD2 = CD2 (Homo sapiens (Human), UniProt P06729); experiment: flow cytometry, CHO-CD2 cells
human PD-1 = human PD-1 (human, UniProt Q15116); experiment: flow cytometry, Jurkat/IL-2/PD-1 cells

| Binder | 100 nM IFN-gamma (pg/mL), SEB assay (human CD86) | 100 nM IFN-gamma (pg/mL), SEB assay (PD-1) | EC50 (CD2) | EC50 (human PD-1) |
| --- | --- | --- | --- | --- |
| CTLA4 3037-Fc-PD-L1 303 (SEQ ID NO 3672) (Fc fusion) KAMHVAQPAVVLASSRGIASFVCEYASPWKATEVRVTVLRQADSQVTEVCAATYMMGSELTFPDDSICTGTSSGNQVNLTIRGLRAMDTGLYICKVEQMYPPPYLLGIGNGTQIYVIDPEPCPDSDGSGGGGSEPKSSDKTHTCPPCPAPEAEGAPSVFLFPPKPKDTLMISRTPEVTCVVVDVSHEDPEVKFNWYVDGVEVHNAKTKPREEQYNSTYRVVSVLTVLHQDWLNGKEYKCKVSNKALPAPIEKTISKAKGQPREPQVYTLPPSRDELTKNQVSLTCLVKGFYPSDIAVEWESNGQPENNYKTTPPVLDSDGSFFLYSKLTVDKSRWQQGNVFSCSVMHEALHNHYTQKSLSLSPGGGGGSGGGGSGGGGSAFTVTVPKDLYVVEYGSNMTIECKFPVEKQLDLAALIVYWEMEGKDIIQFVHGEEDQKAQHSSYRQRARLLKDQLSLGNAALQITDVKLQDAGVYRCMISYGGGADYKRITVKVNA | 2070 pg/mL | 2070 pg/mL |  |  |
| CD58 3650-PD-L1 303-Fc (Fc fusion) SQQIYGVVYGNVTFHVPSNVPLKEVLWKKQKDKVAELENSEFRAFSSFKNRVYLDTVSGSLTIYNLTSSDEDEYEMESPNITDTMKFFLYVLESGGGGSGGGGSGGGGSFTVTVPKDLYVVEYGSNMTIECKFPVEKQLDLAALIVYWEMEGKDIIQFVHGEEDQKAQHSSYRQRARLLKDQLSLGNAALQITDVKLQDAGVYRCMISYGGGADYKRITVKVNAGSGGGGSEPKSSDKTHTCPPCPAPEAEGAPSVFLFPPKPKDTLMISRTPEVTCVVVDVSHEDPEVKFNWYVDGVEVHNAKTKPREEQYNSTYRVVSVLTVLHQDWLNGKEYKCKVSNKALPAPIEKTISKAKGQPREPQVYTLPPSRDELTKNQVSLTCLVKGFYPSDIAVEWESNGQPENNYKTTPPVLDSDGSFFLYSKLTVDKSRWQQGNVFSCSVMHEALHNHYTQKSLSLSPG |  |  | 2 nM | 4.6 nM |
| PD-L1 303-PD-L1 303-CD58 3650-CD58 3650 (other) FTVTVPKDLYVVEYGSNMTIECKFPVEKQLDLAALIVYWEMEGKDIIQFVHGEEDQKAQHSSYRQRARLLKDQLSLGNAALQITDVKLQDAGVYRCMISYGGGADYKRITVKVNAGGGGSGGGGSGGGGSFTVTVPKDLYVVEYGSNMTIECKFPVEKQLDLAALIVYWEMEGKDIIQFVHGEEDQKAQHSSYRQRARLLKDQLSLGNAALQITDVKLQDAGVYRCMISYGGGADYKRITVKVNAGGGGSGGGGSGGGGSSQQIYGVVYGNVTFHVPSNVPLKEVLWKKQKDKVAELENSEFRAFSSFKNRVYLDTVSGSLTIYNLTSSDEDEYEMESPNITDTMKFFLYVLESGSGGSGGGGSGGGGSSQQIYGVVYGNVTFHVPSNVPLKEVLWKKQKDKVAELENSEFRAFSSFKNRVYLDTVSGSLTIYNLTSSDEDEYEMESPNITDTMKFFLYVLESGSGGGGSDYKDDDDKHHHHHH |  |  | 13.7 nM | 2 nM |
| CTLA-4 3037-Fc-PD-L1 303 (SEQ ID NO 3670) (Fc fusion) KAMHVAQPAVVLASSRGIASFVCEYASPWKATEVRVTVLRQADSQVTEVCAATYMMGSELTFPDDSICTGTSSGNQVNLTIRGLRAMDTGLYICKVEQMYPPPYLLGIGNGTQIYVIDPEPCPDSDGSGGGGSEPKSSDKTHTCPPCPAPEAEGAPSVFLFPPKPKDTLMISRTPEVTCVVVDVSHEDPEVKFNWYVDGVEVHNAKTKPREEQYNSTYRVVSVLTVLHQDWLNGKEYKCKVSNKALPAPIEKTISKAKGQPREPQVYTLPPSRDELTKNQVSLTCLVKGFYPSDIAVEWESNGQPENNYKTTPPVLDSDGSFFLYSKLTVDKSRWQQGNVFSCSVMHEALHNHYTQKSLSLSPGGGGGSGGGGSGGGGSFTVTVPKDLYVVEYGSNMTIECKFPVEKQLDLAALIVYWEMEGKDIIQFVHGEEDQKAQHSSYRQRARLLKDQLSLGNAALQITDVKLQDAGVYRCMISYGGGADYKRITVKVNA | 1570 pg/mL | 1570 pg/mL |  |  |
| PD-L1 303-CD58 3650-Fc (Fc fusion) FTVTVPKDLYVVEYGSNMTIECKFPVEKQLDLAALIVYWEMEGKDIIQFVHGEEDQKAQHSSYRQRARLLKDQLSLGNAALQITDVKLQDAGVYRCMISYGGGADYKRITVKVNAGGGGSGGGGSGGGGSSQQIYGVVYGNVTFHVPSNVPLKEVLWKKQKDKVAELENSEFRAFSSFKNRVYLDTVSGSLTIYNLTSSDEDEYEMESPNITDTMKFFLYVLESGSGGGGSEPKSSDKTHTCPPCPAPEAEGAPSVFLFPPKPKDTLMISRTPEVTCVVVDVSHEDPEVKFNWYVDGVEVHNAKTKPREEQYNSTYRVVSVLTVLHQDWLNGKEYKCKVSNKALPAPIEKTISKAKGQPREPQVYTLPPSRDELTKNQVSLTCLVKGFYPSDIAVEWESNGQPENNYKTTPPVLDSDGSFFLYSKLTVDKSRWQQGNVFSCSVMHEALHNHYTQKSLSLSPG |  |  | 0.661 nM | 1.2 nM |
| CTLA-4 3037-Fc (Fc fusion) KAMHVAQPAVVLASSRGIASFVCEYASPWKATEVRVTVLRQADSQVTEVCAATYMMGSELTFPDDSICTGTSSGNQVNLTIRGLRAMDTGLYICKVEQMYPPPYLLGIGNGTQIYVIDPEPCPDSDGSGGGGSEPKSSDKTHTCPPCPAPEAEGAPSVFLFPPKPKDTLMISRTPEVTCVVVDVSHEDPEVKFNWYVDGVEVHNAKTKPREEQYNSTYRVVSVLTVLHQDWLNGKEYKCKVSNKALPAPIEKTISKAKGQPREPQVYTLPPSRDELTKNQVSLTCLVKGFYPSDIAVEWESNGQPENNYKTTPPVLDSDGSFFLYSKLTVDKSRWQQGNVFSCSVMHEALHNHYTQKSLSLSPG | 807 pg/mL |  |  |  |
| PD-L1 303-CTLA-4 3037-Fc (SEQ ID NO 3668) (Fc fusion) FTVTVPKDLYVVEYGSNMTIECKFPVEKQLDLAALIVYWEMEGKDIIQFVHGEEDQKAQHSSYRQRARLLKDQLSLGNAALQITDVKLQDAGVYRCMISYGGGADYKRITVKVNAGSGGSGGGGSGGGGSKAMHVAQPAVVLASSRGIASFVCEYASPWKATEVRVTVLRQADSQVTEVCAATYMMGSELTFPDDSICTGTSSGNQVNLTIRGLRAMDTGLYICKVEQMYPPPYLLGIGNGTQIYVIDPEPCPDSDGGGGSGSGGGGSEPKSSDKTHTCPPCPAPEAEGAPSVFLFPPKPKDTLMISRTPEVTCVVVDVSHEDPEVKFNWYVDGVEVHNAKTKPREEQYNSTYRVVSVLTVLHQDWLNGKEYKCKVSNKALPAPIEKTISKAKGQPREPQVYTLPPSRDELTKNQVSLTCLVKGFYPSDIAVEWESNGQPENNYKTTPPVLDSDGSFFLYSKLTVDKSRWQQGNVFSCSVMHEALHNHYTQKSLSLSPG | 6100 pg/mL | 6100 pg/mL |  |  |
| PD-L1 303-CTLA4 3060-Fc (Fc fusion) FTVTVPKDLYVVEYGSNMTIECKFPVEKQLDLAALIVYWEMEGKDIIQFVHGEEDQKAQHSSYRQRARLLKDQLSLGNAALQITDVKLQDAGVYRCMISYGGGADYKRITVKVNAGSGGSGGGGSGGGGSKAMHVAQPAVVFASSHGIASFVCEYASPWKATEVRVTVLRQADSQVTEVCAATYMTGNELTFLDDSICTGTSSGNQVNLTIQGLRAMDTGLYICKVEQMYPPPYLLGIGNGTQIYVIDPEPCPDSDGGGGSGSGGGGSEPKSSDKTHTCPPCPAPEAEGAPSVFLFPPKPKDTLMISRTPEVTCVVVDVSHEDPEVKFNWYVDGVEVHNAKTKPREEQYNSTYRVVSVLTVLHQDWLNGKEYKCKVSNKALPAPIEKTISKAKGQPREPQVYTLPPSRDELTKNQVSLTCLVKGFYPSDIAVEWESNGQPENNYKTTPPVLDSDGSFFLYSKLTVDKSRWQQGNVFSCSVMHEALHNHYTQKSLSLSPG | 4470 pg/mL | 4470 pg/mL |  |  |
| CTLA-4 3037-PD-L1 303-Fc (SEQ ID NO 3666) (Fc fusion) KAMHVAQPAVVLASSRGIASFVCEYASPWKATEVRVTVLRQADSQVTEVCAATYMMGSELTFPDDSICTGTSSGNQVNLTIRGLRAMDTGLYICKVEQMYPPPYLLGIGNGTQIYVIDPEPCPDSDGSGGSGGGGSGGGGSFTVTVPKDLYVVEYGSNMTIECKFPVEKQLDLAALIVYWEMEGKDIIQFVHGEEDQKAQHSSYRQRARLLKDQLSLGNAALQITDVKLQDAGVYRCMISYGGGADYKRITVKVNAGGGGSGSGGGGSEPKSSDKTHTCPPCPAPEAEGAPSVFLFPPKPKDTLMISRTPEVTCVVVDVSHEDPEVKFNWYVDGVEVHNAKTKPREEQYNSTYRVVSVLTVLHQDWLNGKEYKCKVSNKALPAPIEKTISKAKGQPREPQVYTLPPSRDELTKNQVSLTCLVKGFYPSDIAVEWESNGQPENNYKTTPPVLDSDGSFFLYSKLTVDKSRWQQGNVFSCSVMHEALHNHYTQKSLSLSPG | 2050 pg/mL | 2050 pg/mL |  |  |
| CTLA-4 3060-PD-L1 303-Fc (Fc fusion) KAMHVAQPAVVFASSHGIASFVCEYASPWKATEVRVTVLRQADSQVTEVCAATYMTGNELTFLDDSICTGTSSGNQVNLTIQGLRAMDTGLYICKVEQMYPPPYLLGIGNGTQIYVIDPEPCPDSDGSGGSGGGGSGGGGSFTVTVPKDLYVVEYGSNMTIECKFPVEKQLDLAALIVYWEMEGKDIIQFVHGEEDQKAQHSSYRQRARLLKDQLSLGNAALQITDVKLQDAGVYRCMISYGGGADYKRITVKVNAGGGGSGSGGGGSEPKSSDKTHTCPPCPAPEAEGAPSVFLFPPKPKDTLMISRTPEVTCVVVDVSHEDPEVKFNWYVDGVEVHNAKTKPREEQYNSTYRVVSVLTVLHQDWLNGKEYKCKVSNKALPAPIEKTISKAKGQPREPQVYTLPPSRDELTKNQVSLTCLVKGFYPSDIAVEWESNGQPENNYKTTPPVLDSDGSFFLYSKLTVDKSRWQQGNVFSCSVMHEALHNHYTQKSLSLSPG | 3790 pg/mL | 3790 pg/mL |  |  |
